B1: LARP4 (parent)
chain: WTVANMEEIKKLTTDPDLILEVLR
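Note: lentivirally expressed fusions sorted by FACS into six bins by GFP to DsRed ratio, PSI derived from sequencing read proportions per bin multiplied by bin number.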

Variants of: B1
Assay: protein stability index of a GFP-peptide fusion (GPS, HEK-293T) (PSI 1-6); higher = more stable
Settings: c terminus: a fixed tail appended
Work on WTVNNMEEIKKLTTDPDLILEVLR yielded a protein stability index of 2.59.
Variant WTVPNMEEIKKLTTDPDLILEVLR has a protein stability index of 2.05.
For WTVQNMEEIKKLTTDPDLILEVLR, the protein stability index was 2.61.
For WTVRNMEEIKKLTTDPDLILEVLR, the protein stability index was 2.45.
Work on WTVSNMEEIKKLTTDPDLILEVLR yielded a protein stability index of 1.9.
For WTVTNMEEIKKLTTDPDLILEVLR, the protein stability index was 1.97.
For WTVVNMEEIKKLTTDPDLILEVLR, the protein stability index was 1.43.
WTVWNMEEIKKLTTDPDLILEVLR showed a protein stability index of 1.21.
Work on WTVYNMEEIKKLTTDPDLILEVLR yielded a protein stability index of 1.5.
For WTVAAMEEIKKLTTDPDLILEVLR, the protein stability index was 1.29.
Work on WTVACMEEIKKLTTDPDLILEVLR yielded a protein stability index of 2.04.
In the case of WTVADMEEIKKLTTDPDLILEVLR, the protein stability index is reported as 2.79.
Work on WTVAEMEEIKKLTTDPDLILEVLR yielded a protein stability index of 2.47.
In the case of WTVAFMEEIKKLTTDPDLILEVLR, the protein stability index is reported as 1.98.
With WTVAGMEEIKKLTTDPDLILEVLR the protein stability index was 1.64.
In the case of WTVAHMEEIKKLTTDPDLILEVLR, the protein stability index is reported as 1.99.
With WTVAKMEEIKKLTTDPDLILEVLR the protein stability index was 2.05.
WTVALMEEIKKLTTDPDLILEVLR showed a protein stability index of 2.55.
For WTVAPMEEIKKLTTDPDLILEVLR, the protein stability index was 1.76.
In the case of WTVAQMEEIKKLTTDPDLILEVLR, the protein stability index is reported as 2.39.
Work on WTVARMEEIKKLTTDPDLILEVLR yielded a protein stability index of 1.16.
Variant WTVASMEEIKKLTTDPDLILEVLR has a protein stability index of 1.66.
With WTVATMEEIKKLTTDPDLILEVLR the protein stability index was 1.65.
Work on WTVAVMEEIKKLTTDPDLILEVLR yielded a protein stability index of 1.85.
In the case of WTVAWMEEIKKLTTDPDLILEVLR, the protein stability index is reported as 1.76.
WTVAYMEEIKKLTTDPDLILEVLR gave a protein stability index of 2.38.
Work on WTVANAEEIKKLTTDPDLILEVLR yielded a protein stability index of 1.33.
WTVANCEEIKKLTTDPDLILEVLR showed a protein stability index of 2.6.
WTVANDEEIKKLTTDPDLILEVLR gave a protein stability index of 2.79.
In the case of WTVANEEEIKKLTTDPDLILEVLR, the protein stability index is reported as 2.67.
In the case of WTVANFEEIKKLTTDPDLILEVLR, the protein stability index is reported as 1.69.
Work on WTVANGEEIKKLTTDPDLILEVLR yielded a protein stability index of 1.59.
In the case of WTVANHEEIKKLTTDPDLILEVLR, the protein stability index is reported as 1.79.
Work on WTVANIEEIKKLTTDPDLILEVLR yielded a protein stability index of 1.63.
WTVANKEEIKKLTTDPDLILEVLR gave a protein stability index of 1.89.
Variant WTVANLEEIKKLTTDPDLILEVLR has a protein stability index of 2.13.
WTVANNEEIKKLTTDPDLILEVLR showed a protein stability index of 2.67.
With WTVANPEEIKKLTTDPDLILEVLR the protein stability index was 2.03.
WTVANQEEIKKLTTDPDLILEVLR gave a protein stability index of 2.25.
WTVANREEIKKLTTDPDLILEVLR showed a protein stability index of 2.47.
WTVANSEEIKKLTTDPDLILEVLR showed a protein stability index of 2.57.
WTVANVEEIKKLTTDPDLILEVLR showed a protein stability index of 1.73.
In the case of WTVANWEEIKKLTTDPDLILEVLR, the protein stability index is reported as 1.89.
Variant WTVANYEEIKKLTTDPDLILEVLR has a protein stability index of 1.73.
For WTVANMAEIKKLTTDPDLILEVLR, the protein stability index was 1.9.
Variant WTVANMCEIKKLTTDPDLILEVLR has a protein stability index of 1.58.
WTVANMDEIKKLTTDPDLILEVLR gave a protein stability index of 2.23.
WTVANMFEIKKLTTDPDLILEVLR gave a protein stability index of 2.55.
For WTVANMGEIKKLTTDPDLILEVLR, the protein stability index was 2.4.
Variant WTVANMHEIKKLTTDPDLILEVLR has a protein stability index of 1.59.
For WTVANMIEIKKLTTDPDLILEVLR, the protein stability index was 1.94.
For WTVANMKEIKKLTTDPDLILEVLR, the protein stability index was 1.88.
WTVANMMEIKKLTTDPDLILEVLR gave a protein stability index of 1.2.
With WTVANMNEIKKLTTDPDLILEVLR the protein stability index was 2.56.
WTVANMQEIKKLTTDPDLILEVLR showed a protein stability index of 2.28.
In the case of WTVANMREIKKLTTDPDLILEVLR, the protein stability index is reported as 1.44.
With WTVANMSEIKKLTTDPDLILEVLR the protein stability index was 1.7.
For WTVANMTEIKKLTTDPDLILEVLR, the protein stability index was 1.91.
For WTVANMVEIKKLTTDPDLILEVLR, the protein stability index was 1.93.
WTVANMYEIKKLTTDPDLILEVLR gave a protein stability index of 2.18.
Work on WTVANMEAIKKLTTDPDLILEVLR yielded a protein stability index of 1.5.
For WTVANMECIKKLTTDPDLILEVLR, the protein stability index was 2.25.
Variant WTVANMEDIKKLTTDPDLILEVLR has a protein stability index of 2.03.
In the case of WTVANMEFIKKLTTDPDLILEVLR, the protein stability index is reported as 1.7.
In the case of WTVANMEGIKKLTTDPDLILEVLR, the protein stability index is reported as 1.56.
For WTVANMEHIKKLTTDPDLILEVLR, the protein stability index was 2.89.
For WTVANMEIIKKLTTDPDLILEVLR, the protein stability index was 1.72.
In the case of WTVANMELIKKLTTDPDLILEVLR, the protein stability index is reported as 3.14.
For WTVANMEMIKKLTTDPDLILEVLR, the protein stability index was 1.47.
In the case of WTVANMENIKKLTTDPDLILEVLR, the protein stability index is reported as 2.03.
Work on WTVANMEPIKKLTTDPDLILEVLR yielded a protein stability index of 1.82.
With WTVANMEQIKKLTTDPDLILEVLR the protein stability index was 1.68.
WTVANMERIKKLTTDPDLILEVLR showed a protein stability index of 2.37.
In the case of WTVANMESIKKLTTDPDLILEVLR, the protein stability index is reported as 1.58.
Variant WTVANMETIKKLTTDPDLILEVLR has a protein stability index of 1.7.
Work on WTVANMEVIKKLTTDPDLILEVLR yielded a protein stability index of 1.4.
Work on WTVANMEWIKKLTTDPDLILEVLR yielded a protein stability index of 1.36.
WTVANMEYIKKLTTDPDLILEVLR showed a protein stability index of 2.73.
WTVANMEEAKKLTTDPDLILEVLR showed a protein stability index of 2.38.
With WTVANMEECKKLTTDPDLILEVLR the protein stability index was 2.27.
Variant WTVANMEEDKKLTTDPDLILEVLR has a protein stability index of 2.76.
Variant WTVANMEEEKKLTTDPDLILEVLR has a protein stability index of 2.75.
WTVANMEEFKKLTTDPDLILEVLR gave a protein stability index of 1.87.
WTVANMEEGKKLTTDPDLILEVLR gave a protein stability index of 2.43.
In the case of WTVANMEEHKKLTTDPDLILEVLR, the protein stability index is reported as 2.65.
WTVANMEEKKKLTTDPDLILEVLR showed a protein stability index of 2.5.
WTVANMEELKKLTTDPDLILEVLR showed a protein stability index of 2.16.
With WTVANMEEMKKLTTDPDLILEVLR the protein stability index was 2.3.
Work on WTVANMEENKKLTTDPDLILEVLR yielded a protein stability index of 1.93.
WTVANMEEPKKLTTDPDLILEVLR showed a protein stability index of 2.49.
Work on WTVANMEEQKKLTTDPDLILEVLR yielded a protein stability index of 2.14.
WTVANMEERKKLTTDPDLILEVLR showed a protein stability index of 2.5.
Work on WTVANMEESKKLTTDPDLILEVLR yielded a protein stability index of 1.85.
In the case of WTVANMEETKKLTTDPDLILEVLR, the protein stability index is reported as 1.71.
